According to patent publication US20200024330A1:

Columns and labels:
Experiment in all cases: cell-based or functional assay
[1] = biological target: HIV-1 92BR020 envelope glycoprotein (Env) on pseudovirus (HIV-1)
[2] = biological target: HIV-1 92RW020 envelope glycoprotein (Env) on pseudovirus (HIV-1)
[3] = biological target: HIV-1 Env of isolate 6535.3 (HIV-1)
[4] = biological target: HIV-1 Env of isolate 92BR020 (HIV-1)
[5] = biological target: HIV-1 Env of isolate 92RW008 (clade A), on pseudovirus (HIV-1)
[6] = biological target: HIV-1 Env of isolate 92RW009 (clade A), on pseudovirus (HIV-1)
[7] = biological target: HIV-1 Env of isolate 92TH021 (pseudovirus) (HIV-1)
[8] = biological target: HIV-1 Env of isolate 92UG001 (subtype D), on pseudovirus (HIV-1)
[9] = biological target: HIV-1 Env of isolate 92UG005 (subtype D), on pseudovirus (HIV-1)
[10] = biological target: HIV-1 Env of isolate 92UG024 (subtype D), on pseudovirus (HIV-1)
[11] = biological target: HIV-1 Env of isolate 92UG031 (pseudovirus) (HIV-1)
[12] = biological target: HIV-1 Env of isolate 92UG037 (pseudovirus) (HIV-1)
[13] = biological target: HIV-1 Env of isolate 92UG046 (subtype D), on pseudovirus (HIV-1)
[14] = biological target: HIV-1 Env of isolate 92UG114 (subtype D), on pseudovirus (HIV-1)
[15] = biological target: HIV-1 Env of isolate 92WR020 (pseudovirus) (HIV-1)
[16] = biological target: HIV-1 Env of isolate 92WR021 (pseudovirus) (HIV-1)
[17] = biological target: HIV-1 Env of isolate 92WR024 (pseudovirus) (HIV-1)
[18] = biological target: HIV-1 Env of isolate 92WR026 (pseudovirus) (HIV-1)
[19] = biological target: HIV-1 Env of isolate 93TH305 (HIV-1)
[20] = biological target: HIV-1 Env of isolate 93UG077 (pseudovirus) (HIV-1)
[21] = biological target: HIV-1 Env of isolate 93WR029 (pseudovirus) (HIV-1)
[22] = biological target: HIV-1 Env of isolate 94 KE 105 (pseudovirus) (HIV-1)
[23] = biological target: HIV-1 Env of isolate 94UG103 (pseudovirus) (HIV-1)
[24] = biological target: HIV-1 Env of isolate 98CN006 (subtype CRF08 BC), on pseudovirus (HIV-1)
[25] = biological target: HIV-1 Env of isolate 98CN009 (subtype CRF07_BC), on pseudovirus (HIV-1)
[26] = biological target: HIV-1 Env of isolate APV_13 (HIV-1)
[27] = biological target: HIV-1 Env of isolate APV_17 (HIV-1)
[28] = biological target: HIV-1 Env of isolate APV_6 (HIV-1)
[29] = biological target: HIV-1 Env of isolate CAAN.A2 (HIV-1)
[30] = biological target: HIV-1 Env of isolate CMU02 (pseudovirus) (HIV-1)
[31] = biological target: HIV-1 Env of isolate JRFL (HIV-1)
[32] = biological target: HIV-1 Env of isolate MG RM-A-005 (pseudovirus) (HIV-1)
[33] = biological target: HIV-1 Env of isolate MG RM-A-006 (pseudovirus) (HIV-1)
[34] = biological target: HIV-1 Env of isolate MG RM-A-007 (pseudovirus) (HIV-1)
[35] = biological target: HIV-1 Env of isolate MG RM-A-008 (pseudovirus) (HIV-1)
[36] = biological target: HIV-1 Env of isolate MG RM-A-009 (pseudovirus) (HIV-1)
[37] = biological target: HIV-1 Env of isolate MG RM-A-010 (pseudovirus) (HIV-1)
[38] = biological target: HIV-1 Env of isolate MG RM-A-011 (pseudovirus) (HIV-1)
[39] = biological target: HIV-1 Env of isolate MG RM-A-012 (pseudovirus) (HIV-1)
[40] = biological target: HIV-1 Env of isolate MG RM-A-013 (pseudovirus) (HIV-1)
[41] = biological target: HIV-1 Env of isolate MG RM-A-014 (pseudovirus) (HIV-1)
[42] = biological target: HIV-1 Env of isolate MGRM-AE-001 (pseudovirus) (HIV-1)
[43] = biological target: HIV-1 Env of isolate MGRM-AE-002 (pseudovirus) (HIV-1)
[44] = biological target: HIV-1 Env of isolate MGRM-AE-003 (pseudovirus) (HIV-1)
[45] = biological target: HIV-1 Env of isolate MGRM-AE-004 (pseudovirus) (HIV-1)
[46] = biological target: HIV-1 Env of isolate MGRM-AE-005 (pseudovirus) (HIV-1)
[47] = biological target: HIV-1 Env of isolate MGRM-AE-006 (pseudovirus) (HIV-1)
[48] = biological target: HIV-1 Env of isolate MGRM-Chronic-B-001 (HIV-1)
[49] = biological target: HIV-1 Env of isolate MGRM-Chronic-B-002 (HIV-1)
[50] = biological target: HIV-1 Env of isolate MGRM-Chronic-B-003 (HIV-1)
[51] = biological target: HIV-1 Env of isolate MGRM-Chronic-B-004 (HIV-1)
[52] = biological target: HIV-1 Env of isolate MGRM-Chronic-B-008 (HIV-1)
[53] = biological target: HIV-1 Env of isolate MGRM-D-001 (subtype D), on pseudovirus (HIV-1)
[54] = biological target: HIV-1 Env of isolate MGRM-D-002 (subtype D), on pseudovirus (HIV-1)
[55] = biological target: HIV-1 Env of isolate MGRM-D-003 (subtype D), on pseudovirus (HIV-1)
[56] = biological target: HIV-1 Env of isolate MGRM-D-004 (subtype D), on pseudovirus (HIV-1)
[57] = biological target: HIV-1 Env of isolate MGRM-D-005 (subtype D), on pseudovirus (HIV-1)
[58] = biological target: HIV-1 Env of isolate MGRM-D-008 (subtype D), on pseudovirus (HIV-1)
[59] = biological target: HIV-1 Env of isolate VLGCA1 (pseudovirus) (HIV-1)

Sequence of 4995_E20 (PGT-142) (antibody) (VH): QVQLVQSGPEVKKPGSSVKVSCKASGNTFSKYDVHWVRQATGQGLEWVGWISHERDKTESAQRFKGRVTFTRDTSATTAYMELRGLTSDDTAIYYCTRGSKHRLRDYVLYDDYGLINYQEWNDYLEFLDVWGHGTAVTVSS
Sequence of 4995_E20 (PGT-142) (antibody) (VL): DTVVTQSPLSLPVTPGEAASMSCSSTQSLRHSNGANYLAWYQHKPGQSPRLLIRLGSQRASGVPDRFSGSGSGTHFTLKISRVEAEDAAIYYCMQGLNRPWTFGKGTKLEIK
Sequence of 4993_K13 (PGT-141) (antibody) (VH): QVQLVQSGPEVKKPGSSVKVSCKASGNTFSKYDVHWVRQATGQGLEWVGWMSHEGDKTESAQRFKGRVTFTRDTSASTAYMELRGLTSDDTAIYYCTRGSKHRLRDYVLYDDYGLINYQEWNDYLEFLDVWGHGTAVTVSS
Sequence of 4993_K13 (PGT-141) (antibody) (VL): as the sequence (VL) above

## 4993_K13 (PGT-141) (antibody)
[1]
  IC50 (ug/ml), neutralizing activity: > 10 µg/mL
[2]
  IC50 (ug/ml), neutralizing activity: > 10 µg/mL
[3]
  IC50: > 50 µg/mL
[4]
  IC50: 20.3 µg/mL
[5]
  IC50, single-round pseudovirus neutralization: 0.579 µg/mL
[6]
  IC50, single-round pseudovirus neutralization: 0.022 µg/mL
[7]
  IC50 (µg/mL), pseudovirus neutralization: 0.001 µg/mL
[8]
  IC50, pseudovirus neutralization: > 50 µg/mL
[9]
  IC50, pseudovirus neutralization: > 5 µg/mL
[10]
  IC50, pseudovirus neutralization: > 50 µg/mL
[11]
  IC50 (µg/mL), pseudovirus neutralization: 0.093 µg/mL
[12]
  IC50 (µg/mL), pseudovirus neutralization: 1.28 µg/mL
[13]
  IC50, pseudovirus neutralization: > 50 µg/mL
[14]
  IC50, pseudovirus neutralization: > 50 µg/mL
[15]
  IC50 (µg/mL), pseudovirus neutralization: > 50 µg/mL
[16]
  IC50 (µg/mL), pseudovirus neutralization: > 50 µg/mL
[17]
  IC50 (µg/mL), pseudovirus neutralization: 0.175 µg/mL
[18]
  IC50 (µg/mL), pseudovirus neutralization: 1.78 µg/mL
[19]
  IC50: > 50 µg/mL
[20]
  IC50 (µg/mL), pseudovirus neutralization: > 50 µg/mL
[21]
  IC50 (µg/mL), pseudovirus neutralization: 0.019 µg/mL
[22]
  IC50 (µg/mL), pseudovirus neutralization: 0.204 µg/mL
[23]
  IC50 (µg/mL), pseudovirus neutralization: > 50 µg/mL
[24]
  IC50, pseudovirus neutralization: > 50 µg/mL
[25]
  IC50, pseudovirus neutralization: 1.28 µg/mL
[26]
  IC50: > 50 µg/mL
[27]
  IC50: 0.59 µg/mL
[28]
  IC50: 14.2 µg/mL
[29]
  IC50: > 50 µg/mL
[30]
  IC50 (µg/mL), pseudovirus neutralization: > 50 µg/mL
[31]
  IC50: > 50 µg/mL
[32]
  IC50 (µg/mL), pseudovirus neutralization: 11.1 µg/mL
[33]
  IC50 (µg/mL), pseudovirus neutralization: > 50 µg/mL
[34]
  IC50 (µg/mL), pseudovirus neutralization: > 50 µg/mL
[35]
  IC50 (µg/mL), pseudovirus neutralization: > 50 µg/mL
[36]
  IC50 (µg/mL), pseudovirus neutralization: 0.029 µg/mL
[37]
  IC50 (µg/mL), pseudovirus neutralization: 0.022 µg/mL
[38]
  IC50 (µg/mL), pseudovirus neutralization: > 50 µg/mL
[39]
  IC50 (µg/mL), pseudovirus neutralization: > 50 µg/mL
[40]
  IC50 (µg/mL), pseudovirus neutralization: 9.86 µg/mL
[41]
  IC50 (µg/mL), pseudovirus neutralization: 0.628 µg/mL
[42]
  IC50 (µg/mL), pseudovirus neutralization: > 50 µg/mL
[43]
  IC50 (µg/mL), pseudovirus neutralization: > 50 µg/mL
[44]
  IC50 (µg/mL), pseudovirus neutralization: > 50 µg/mL
[45]
  IC50 (µg/mL), pseudovirus neutralization: > 50 µg/mL
[46]
  IC50 (µg/mL), pseudovirus neutralization: > 50 µg/mL
[47]
  IC50 (µg/mL), pseudovirus neutralization: > 50 µg/mL
[48]
  IC50: > 50 µg/mL
[49]
  IC50: > 50 µg/mL
[50]
  IC50: 0.4 µg/mL
[51]
  IC50: 0.586 µg/mL
[52]
  IC50: > 50 µg/mL
[53]
  IC50, pseudovirus neutralization: > 50 µg/mL
[54]
  IC50, pseudovirus neutralization: > 50 µg/mL
[55]
  IC50, pseudovirus neutralization: > 50 µg/mL
[56]
  IC50, pseudovirus neutralization: > 50 µg/mL
[57]
  IC50, pseudovirus neutralization: 5.15 µg/mL
[58]
  IC50, pseudovirus neutralization: 0.371 µg/mL
[59]
  IC50 (µg/mL), pseudovirus neutralization: 2.07 µg/mL

## 4995_E20 (PGT-142) (antibody)
[1]
  IC50 (ug/ml), neutralizing activity: > 10 µg/mL
[2]
  IC50 (ug/ml), neutralizing activity: > 10 µg/mL
[3]
  IC50: > 50 µg/mL
[4]
  IC50: 15.1 µg/mL
[5]
  IC50, single-round pseudovirus neutralization: 0.447 µg/mL
[6]
  IC50, single-round pseudovirus neutralization: 0.006 µg/mL
[7]
  IC50 (µg/mL), pseudovirus neutralization: 0.002 µg/mL
[8]
  IC50, pseudovirus neutralization: > 50 µg/mL
[9]
  IC50, pseudovirus neutralization: > 50 µg/mL
[10]
  IC50, pseudovirus neutralization: > 50 µg/mL
[11]
  IC50 (µg/mL), pseudovirus neutralization: 0.05 µg/mL
[12]
  IC50 (µg/mL), pseudovirus neutralization: 0.557 µg/mL
[13]
  IC50, pseudovirus neutralization: > 50 µg/mL
[14]
  IC50, pseudovirus neutralization: > 50 µg/mL
[15]
  IC50 (µg/mL), pseudovirus neutralization: 31.5 µg/mL
[16]
  IC50 (µg/mL), pseudovirus neutralization: > 50 µg/mL
[17]
  IC50 (µg/mL), pseudovirus neutralization: 0.069 µg/mL
[18]
  IC50 (µg/mL), pseudovirus neutralization: 1.78 µg/mL
[19]
  IC50: 5.86 µg/mL
[20]
  IC50 (µg/mL), pseudovirus neutralization: > 50 µg/mL
[21]
  IC50 (µg/mL), pseudovirus neutralization: 0.014 µg/mL
[22]
  IC50 (µg/mL), pseudovirus neutralization: 0.19 µg/mL
[23]
  IC50 (µg/mL), pseudovirus neutralization: > 50 µg/mL
[24]
  IC50, pseudovirus neutralization: > 50 µg/mL
[25]
  IC50, pseudovirus neutralization: 4 µg/mL
[26]
  IC50: > 50 µg/mL
[27]
  IC50: 0.628 µg/mL
[28]
  IC50: 4.72 µg/mL
[29]
  IC50: > 50 µg/mL
[30]
  IC50 (µg/mL), pseudovirus neutralization: > 50 µg/mL
[31]
  IC50: > 50 µg/mL
[32]
  IC50 (µg/mL), pseudovirus neutralization: 9.7 µg/mL
[33]
  IC50 (µg/mL), pseudovirus neutralization: > 50 µg/mL
[34]
  IC50 (µg/mL), pseudovirus neutralization: > 50 µg/mL
[35]
  IC50 (µg/mL), pseudovirus neutralization: > 50 µg/mL
[36]
  IC50 (µg/mL), pseudovirus neutralization: 0.058 µg/mL
[37]
  IC50 (µg/mL), pseudovirus neutralization: 0.015 µg/mL
[38]
  IC50 (µg/mL), pseudovirus neutralization: > 50 µg/mL
[39]
  IC50 (µg/mL), pseudovirus neutralization: > 50 µg/mL
[40]
  IC50 (µg/mL), pseudovirus neutralization: 3.77 µg/mL
[41]
  IC50 (µg/mL), pseudovirus neutralization: 0.367 µg/mL
[42]
  IC50 (µg/mL), pseudovirus neutralization: > 50 µg/mL
[43]
  IC50 (µg/mL), pseudovirus neutralization: > 50 µg/mL
[44]
  IC50 (µg/mL), pseudovirus neutralization: > 50 µg/mL
[45]
  IC50 (µg/mL), pseudovirus neutralization: 0.001 µg/mL
[46]
  IC50 (µg/mL), pseudovirus neutralization: > 50 µg/mL
[47]
  IC50 (µg/mL), pseudovirus neutralization: > 50 µg/mL
[48]
  IC50: > 50 µg/mL
[49]
  IC50: > 50 µg/mL
[50]
  IC50: 0.484 µg/mL
[51]
  IC50: 0.172 µg/mL
[52]
  IC50: > 50 µg/mL
[53]
  IC50, pseudovirus neutralization: > 50 µg/mL
[54]
  IC50, pseudovirus neutralization: > 50 µg/mL
[55]
  IC50, pseudovirus neutralization: > 50 µg/mL
[56]
  IC50, pseudovirus neutralization: > 50 µg/mL
[57]
  IC50, pseudovirus neutralization: 1.15 µg/mL
[58]
  IC50, pseudovirus neutralization: 0.174 µg/mL
[59]
  IC50 (µg/mL), pseudovirus neutralization: 2.75 µg/mL
